4 molecules from patent US20250277037A1 (UNIVERSITY OF UTAH RESEARCH FOUNDATION, published 2025) can be followed below.

In assay [1] the target is mouse FcγRIV on RAW 264.7 macrophage cells (mouse). Nature of the assay: competition, flow cytometry on RAW 264.7 cells; 25 and 250 µg/mL, not concentration-dependent; competitor PE anti-mouse FcγRIV (9E9). (Flow cytometry measures light scatter and fluorescence of single cells or particles in a stream.)
Assay [2] shares this target. Description: competition by flow cytometry on RAW 264.7 cells: preincubation with the antibody at 4 °C for 30 min, then staining with PE anti-mouse FcγRIV (clone 9E9); inhibition relative to cells without antibody.
The target is the same in assay [3]. Nature of the assay: flow cytometry, Alexa-647-labelled antibody at 4 µg/mL on RAW 264.7 cells, 4 °C 30 min (medium control 188.3).
Assay [4] has as its target mouse PD-1 (programmed death-1, CD279) on EL4 cells (mouse) (UniProt Q02242). Nature of the assay: flow cytometry on PD-1+ EL4 cells, incubation on ice (4 °C) for 30 min, detection with PE anti-mouse IgG2a; medium control without antibody given as 70.0.
Assay [5] has as its target T1, mouse FcγRIV on RAW 264.7 macrophage cells (mouse, UniProt A0A0B4J1G0 21-249).
T1 construct: also called RAW 264.7 cells
T1 sequence: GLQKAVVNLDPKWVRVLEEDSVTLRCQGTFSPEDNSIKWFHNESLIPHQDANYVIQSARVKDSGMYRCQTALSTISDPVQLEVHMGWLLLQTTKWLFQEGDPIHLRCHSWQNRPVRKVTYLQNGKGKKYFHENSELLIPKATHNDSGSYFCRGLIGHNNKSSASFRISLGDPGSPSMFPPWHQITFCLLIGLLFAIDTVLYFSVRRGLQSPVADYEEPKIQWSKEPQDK
Nature of the assay: flow cytometry, Alexa-647-labelled antibody at 4 µg/mL on RAW 264.7 cells, 4 °C 30 min; reference: cells in the medium control. Here is the method:
ADCP was the next mechanism that was investigated. Before evaluating D-αPD-1-mediated ADCP by macrophages, the binding between D-αPD-1 and macrophages was investigated since the binding is the prerequisite of ADCP. Here, RAW 264.7 cells were incubated with Alexa-647-labeled D-αPD-1, isotype control, or the medium control. Then, the bound antibodies were analyzed by flow cytometry (FIG. 5A).

Chain of mouse PD-1 (programmed death-1, CD279) on EL4 cells (mouse) (Q02242 25-288): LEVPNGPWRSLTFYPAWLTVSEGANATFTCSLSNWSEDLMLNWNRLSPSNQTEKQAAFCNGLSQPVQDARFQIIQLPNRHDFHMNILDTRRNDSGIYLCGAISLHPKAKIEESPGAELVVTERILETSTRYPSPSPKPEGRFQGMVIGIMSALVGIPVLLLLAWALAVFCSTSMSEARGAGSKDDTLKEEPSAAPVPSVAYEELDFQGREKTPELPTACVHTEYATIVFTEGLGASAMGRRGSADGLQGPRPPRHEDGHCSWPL

“B-αPD-1 (anti-mouse PD-1 blocking antibody, clone RMP1-14, a rat IgG)” returned a percent inhibition of anti-mouse FcγRIV antibody binding in assay [1] of 10%. In assay [2], this molecule registered an Inhibition (%) at 25 µg/mL of 10.5% and an Inhibition (%) at 250 µg/mL of 6.7%.

With goat IgG control (antibody), the percent inhibition of anti-mouse FcγRIV antibody binding in assay [1] was found to be 10%. Further, in assay [2], the Inhibition (%) at 25 µg/mL was found to be 4% and the Inhibition (%) at 250 µg/mL is 4.3%.

In the case of mouse IgG2a isotype control (antibody), in assay [3], the MFI amounted to 213 MFI. In assay [4], this molecule showed an MFI at 0.1 µg/mL of 95.4, an MFI at 1 µg/mL of 125 and an MFI at 10 µg/mL of 433.

B1: D-αPD-1 (depleting anti-mouse PD-1 antibody; RMP1-14 variable domains on mouse IgG2a heavy and mouse κ light constant domains) (antibody)
heavy: EVQLQESGPGLVKPSQSLSLTCSVTGYSITSSYRWNWIRKFPGNRLEWMGYINSAGISNYNPSLKRRISITRDTSKNQFFLQVNSVTTEDAATYYCARSDNMGTTPFTYWGQGTLVTVSSAKTTAPSVYPLAPVCGDTTGSSVTLGCLVKGYFPEPVTLTWNSGSLSSGVHTFPAVLQSDLYTLSSSVTVTSSTWPSQSITCNVAHPASSTKVDKKIEPRGPTIKPCPPCKCPAPNLLGGPSVFIFPPKIKDVLMISLSPIVTCVVVDVSEDDPDVQISWFVNNVEVHTAQTQTHREDYNSTLRVVSALPIQHQDWMSGKEFKCKVNNKDLPAPIERTISKPKGSVRAPQVYVLPPPEEEMTKKQVTLTCMVTDFMPEDIYVEWTNNGKTELNYKNTEPVLDSDGSYFMYSKLRVEKKNWVERNSYSCSVVHEGLHNHHTTKSFSRTPGK
light: DIVMTQGTLPNPVPSGESVSITCRSSKSLLYSDGKTYLNWYLQRPGQSPQLLIYWMSTRASGVSDRFSGSGSGTDFTLKISGVEAEDVGIYYCQQGLEFPTFGGGTKLELKRADAAPTVSIFPPSSEQLTSGGASVVCFLNNFYPKDINVKWKIDGSERQNGVLNSWTDQDSKDSTYSMSSTLTLTKDEYERHNSYTCEATHKTSTSPIVKSFNRNEC
notes: also called anti-αPD-1 antibody; anti-PD-1 antibody 1
On to B1, for which the “fold MFI over medium control” value in assay [5] is approximately 3 fold.
